From publication PMC3355305, “Localized Dimerization and Nucleoid Binding Drive Gradient Formation by the Bacterial Cell Division Inhibitor MipZ” (Molecular Cell, 2012) come the findings set out here.

In the data set the target is MipZ dimer. The data set is described as follows: Effect of ParB and parS-containing plasmid DNA on the ATPase activity of MipZ. Format: biochemical, Caulobacter crescentus. To be noted: for Kd: read-out: K. An excerpt:
Figure 3 Interaction of MipZ with FtsZ and ParB (A) Effect of different mutations on the activity of MipZ. Strains MT177 (WT), DK2 (K13A), MT178 (G14V), MT179 (K18Q), and MT197 (D42A) were cultivated for 8 hr in conditions that prevent expression of wild-type mipZ while inducing expression of the indicated mipZ-yfp allele (the scale bar represents 2 μm). (B) Effect of MipZ and its mutant derivatives on the GTPase activity of FtsZ. Shown are the turnover numbers (kcat) of FtsZ in the absence of additional proteins (–) or in the presence of different MipZ variants or BSA. Data represent the average of at least three independent experiments (±SD). (C and D) SPR analysis of the interaction between MipZ and ParB. ParB (3800 RU) was immobilized on a sensor chip and probed with the indicated MipZ proteins (6 μM) in the presence of ADP (C) or ATP (D). (E) Colocalization of mutant MipZ variants with ParB. Strains DK3 (K13A), DK5 (G14V), DK6 (K18Q), and DK7 (D42A) were induced for 8 hr to synthesize CFP-ParB and the indicated MipZ-YFP variants in place of wild-type MipZ (the scale bar represents 2 μm). […] (F) Two-hybrid analysis of the interaction between MipZ and ParB. E. coli BTH101 was transformed with pairs of plasmids encoding the indicated derivatives of the T18 and T25 fragments of adenylate cyclase, respectively. Interaction is evidenced by the formation of red colonies. Positive control (+): T25-zip:T18-zip. (G) Effect of ParB on the ATPase activity of MipZ. The average turnover number (kapp) of MipZ was determined over a range of different MipZ concentrations. When appropriate, the reactions were supplemented with ParB and/or parS-containing plasmid DNA (pMT428; 3.6 kb). The data were approximated by the model used in Figure 2F, yielding the following K and kcat values: MipZ alone (7.1 μM and 0.61 min^−1), + ParB (2.6 μM and 0.77 min^−1), + DNA (6.0 μM and 1.5 min^−1), + ParB and DNA (1.6 μM and 1.6 min^−1). See also Figure S4.
Previous work has shown that, in the presence of parS-containing DNA, ParB stimulates the ATPase activity of ParA/Soj up to 60-fold ([Leonard et al., 2005; Scholefield et al., 2011]), probably by accelerating the rate of nucleotide hydrolysis. […] To clarify this issue, we reanalyzed the concentration dependence of MipZ's ATPase activity (compare Figure 2F) in the presence of both ParB and/or a plasmid that carried a chromosomal fragment containing all predicted C. crescentus parS sites (Figure 3G). […] Consequently, the MipZ dimer might be able to interact with DNA independently of ParB (as detailed below), leading to conformational adjustments that enhance its hydrolytic potential. […] Collectively, these findings argue against a role of ParB as an ATPase-activating factor. […]
obtained from crystals flash frozen in a solution of 95% 2 mM, sa mp le s were taken and analyzed for the amount ethanol/50 mM Tris (pH 8.5), and collected at ID23-2, of [α-32P]-GDP produced in the reaction as described ESRF (Grenoble, France). For apo-MipZ in crystal above. form 2, 768 standard conditions were screened in 200 nl To analyze the concentration dependence of MipZ’s sitting drops using a Microsys 4004 Cartesian robotics ATPase activity, varying amounts of MipZ were system and MipZ at a concentration of 10 mg/ml. incubated in buffer P containing 2 mM [α-32P]-ATP and Crystals obtained in a buffer containing 100 mM Hepes 0.3 mg/ml bovine serum albumin and assayed for (pH 7.5), 10% PEG 10000, 4% ethylene glycol and 30% hydrolytic activity as described above. glycerol were flash-frozen, and data were collected at To determine the effect of ParB on MipZ’s ATPase ID23-1, ESRF. activity, varying amounts of MipZ were incubated with All crystals were indexed and integrated using the ParB (4.5 µM) and/or plasmid pMT428 (3.6 kb, 0.2 MOSFLM package and further processed using the µM), which bears a chromosomal fragment containing […]

Read-outs that look alike come from different tables or passages of the source.

B1: MipZ: P loop ATPase and cell division inhibitor of Caulobacter crescentus; hexahistidine-tagged in vitro, YFP fusion in FRAP (protein)
chain: MAETRVIVVGNEKGGAGKSTIAVHLVTALLYGGAKVAVIDLDLRQRTSARFFENRRAWLDNKKIELPEPLALNLSDNDVALAERPEEEQVAGFEAAFARAMAECDFILIDTPGGDSAITRMAHGRADLVVTPMNDSFVDFDMLGTVDPVTLELTKPSLYSLTVWEGRKQRALSGQRQAMDWVVLRNRLATTEARNRKRLEDRLNALAKRVGFRIGPGLRDRVIYRELFPFGLTIADLSPQVRPVPVSLQHLAARQELRALMHSLGLSAYSGETMLAAQ
modifications: left off: His6, end not stated, state not stated
notes: hexahistidine-tagged in vitro, YFP fusion in FRAP
On to B1, for which the Kd (+ DNA (pMT428, 0.2 µM)) worked out at 6 µM; the Kd (+ ParB (4.5 µM)) is 2.6 µM; the Kd (+ ParB and DNA) worked out at 1.6 µM; the Kd (MipZ alone) turned out to be 7.1 µM. Also, the catalytic constant (kcat) (MipZ alone) worked out at 0.0102 s⁻¹. Besides, the “increase in the catalytic activity of the dimeric complex (kcat)” value (upon addition of DNA) is recorded as around 2 fold. For the same molecule, the “decrease in the apparent equilibrium dissociation constant of the dimeric complex” value (upon addition of ParB) is given as around 4 fold.

For orientation: kcat means the number of substrate molecules converted per active site and unit of time at saturation.
